Laboratory results from US20190016785A1 (published 2019).

Assays:
HBsAg ayw = HBsAg ayw (hepatitis B virus); experiment: ELISA
HBsAg adr = experiment: ELISA

B1: HBC34 (antibody, V domains shown)
VH: ELQLVESGGGWVQPGGSQRLSCAASGRIFRSFYMSWVRQAPGKGLEWVATINQDGSEKLYVDSVKGRFTISRDNAKNSLFLQMNNLRVEDTAVYYCAAWSGNSGGMDVWGQGTTVSVSS
VL: SYELTQPPSVSVSPGQTVSIPCSGDKLGNKNVCWFQHKPGQSPVLVIYEVKYRPSGIPERFSGSNSGNTATLTISGTQAMDEAAYFCQTWDSTTVVFGGGTRLTVL
EC50 (HBsAg ayw): 10 ng/mL
EC50 (HBsAg adr): 6 ng/mL
